± gives the uncertainty stated by the source.
Assay: self-splicing fitness, log relative to wild type (ln ratio); higher = more splicing; Tetrahymena group I intron in knt gene, E. coli kanamycin selection, DiMSum; sequences stand for … in CUCUCU…GGAGGGAAAAGUUAUCAGGCAUGCACCUGGUAGCUAGUCUUUAAACCAAUAGAUUGCAUCGGUUUAAAAGGCAAGACCGUCAAAUUGCGGGAAAGGGGUCAACAGCCGUUCAGUACCAAGUCUCAGGGGAAACUUUGAGAUGGCCUUGCAAAGGGUAUGGUAAUAAGCUGACGGACAUGGUCCUAACCACGCAGCCAAGUCCUAAGUCAACAGAUCUUCUGUUGAUAUGGAUGCAGUUCACAGACUAAAUGUCGGUCGGGGAAGAUGUAUUCUUCUCAUAAGAUAUAGUCGGACCUCUCCUUAAUGGGAGCUAGCGGAUGAAGUGAUGCAACACUGGAGCCGCUGGGAACUAAUUUGUAUGCGAAAGUAUAUUGAUUAGUUUUGGAGUACUCGUGGUCG
Method in brief: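 Fitness was computed with DiMSum as the error-weighted combination of replicate fold changes, kanamycin versus none, each normalised to wild type. The library randomised all eight intron nucleotides of the P1ex region, with the intron placed in the knt kanamycin-resistance gene on pET-22b(+) in E. coli BL21(DE3). Six replicate transformations were grown overnight at 37°C or 30°C on LB agar with or without 25 μg/mL kanamycin, plus 100 μg/mL carbenicillin, 50 μM IPTG and 0.2% rhamnose. Pooled colonies were amplicon-sequenced on an Illumina HiSeq 2500.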

| Sequence | self-splicing fitness (ln) (37 °C) | self-splicing fitness (ln) (30 °C) |
| --- | --- | --- |
| UCGUAGCAAUAUUACGCAUC | -2.63 ± 0.36 | – |
| UCGUAGCAAUAUUACGCCAG | – | -1.49 ± 0.3 |
| UCGUAGCAAUAUUACGCCCG | -0.113 ± 0.17 | -0.251 ± 0.19 |
| UCGUAGCAAUAUUACGCGAG | -2.43 ± 0.16 | -4.07 ± 0.23 |
| UCGUAGCAAUAUUACGCGCU | -1.78 ± 0.22 | -2.31 ± 0.19 |
| UCGUAGCAAUAUUACGCGUG | -0.648 ± 0.096 | -0.861 ± 0.1 |
| UCGUAGCAAUAUUACGGACA | -1.49 ± 0.26 | -0.671 ± 0.18 |
| UCGUAGCAAUAUUACGGAUG | -1.89 ± 0.47 | – |
| UCGUAGCAAUAUUACGUAGU | -1.99 ± 0.13 | -3.61 ± 0.25 |
| UCGUAGCAAUAUUACGUAUA | -1.01 ± 0.28 | -2.92 ± 0.31 |
| UCGUAGCAAUAUUACGUAUU | -0.594 ± 0.14 | -3.9 ± 0.28 |
| UCGUAGCAAUAUUACGUCCA | -0.15 ± 0.17 | -0.914 ± 0.16 |
| UCGUAGCAAUAUUACGUCUA | -0.978 ± 0.12 | -1.48 ± 0.1 |
| UCGUAGCAAUAUUACGUGAG | -1.35 ± 0.15 | -3.55 ± 0.19 |
| UCGUAGCAAUAUUACGUGCA | -1.14 ± 0.12 | -1.18 ± 0.094 |
| UCGUAGCAAUAUUACGUGUA | -0.347 ± 0.11 | -2.75 ± 0.12 |
| UCGUAGCAAUAUUACGUUGA | -0.942 ± 0.14 | -1.59 ± 0.16 |
| UCGUAGCAAUAUUACGUUGC | – | -3.02 ± 0.47 |
| UCGUAGCAAUAUUACGUUUG | -1.56 ± 0.2 | -3.19 ± 0.18 |
| UCUAAGCAAUAUUACGAAAU | – | -3.53 ± 0.32 |
| UCUAAGCAAUAUUACGAAGU | -1.07 ± 0.15 | -1.09 ± 0.11 |
| UCUAAGCAAUAUUACGACGC | -0.398 ± 0.21 | -0.443 ± 0.12 |
| UCUAAGCAAUAUUACGAGUA | -1.02 ± 0.14 | -2.23 ± 0.15 |
| UCUAAGCAAUAUUACGAUUU | -1.37 ± 0.16 | -2.92 ± 0.24 |
| UCUAAGCAAUAUUACGCAGC | -2.07 ± 0.31 | -1.83 ± 0.23 |

| Sequence | self-splicing fitness (ln) (37 °C) | self-splicing fitness (ln) (30 °C) |
| --- | --- | --- |
| UCUAAGCAAUAUUACGCCCG | 0.0184 ± 0.38 | -0.879 ± 0.21 |
| UCUAAGCAAUAUUACGCGCA | -0.561 ± 0.13 | -0.493 ± 0.11 |
| UCUAAGCAAUAUUACGCUAA | -1.84 ± 0.18 | -3.04 ± 0.19 |
| UCUAAGCAAUAUUACGCUAC | -1.73 ± 0.45 | – |
| UCUAAGCAAUAUUACGCUUC | -1.9 ± 0.31 | -3.47 ± 0.3 |
| UCUAAGCAAUAUUACGGCAA | -1.22 ± 0.21 | -1.94 ± 0.34 |
| UCUAAGCAAUAUUACGGGAC | -2.34 ± 0.4 | -3.56 ± 0.35 |
| UCUAAGCAAUAUUACGGGAU | -2.67 ± 0.18 | -2.77 ± 0.14 |
| UCUAAGCAAUAUUACGGGUC | -1.16 ± 0.37 | -2.67 ± 0.26 |
| UCUAAGCAAUAUUACGGUCC | -0.662 ± 0.27 | – |
| UCUAAGCAAUAUUACGGUCG | -0.375 ± 0.13 | -1.34 ± 0.095 |
| UCUAAGCAAUAUUACGUAGG | -1.24 ± 0.15 | -1.65 ± 0.093 |
| UCUAAGCAAUAUUACGUCCG | -0.55 ± 0.14 | -0.454 ± 0.15 |
| UCUAAGCAAUAUUACGUCGC | -1.22 ± 0.25 | -2.06 ± 0.23 |
| UCUAAGCAAUAUUACGUCUU | -4.18 ± 0.46 | -4.03 ± 0.27 |
| UCUAAGCAAUAUUACGUGGG | -1.92 ± 0.2 | -3.09 ± 0.19 |
| UCUAAGCAAUAUUACGUUGC | -2.81 ± 0.29 | -3.92 ± 0.34 |
| UCUCAGCAAUAUUACGAACA | -1.01 ± 0.13 | -1.41 ± 0.12 |
| UCUCAGCAAUAUUACGAAGU | -0.109 ± 0.16 | -2.33 ± 0.26 |
| UCUCAGCAAUAUUACGAAUA | -0.0366 ± 0.13 | -2.57 ± 0.21 |
| UCUCAGCAAUAUUACGACGA | -0.879 ± 0.13 | -0.256 ± 0.12 |
| UCUCAGCAAUAUUACGACGU | -0.541 ± 0.08 | -0.386 ± 0.07 |
| UCUCAGCAAUAUUACGAGAA | -0.803 ± 0.2 | -2.45 ± 0.29 |
| UCUCAGCAAUAUUACGCAAA | -1.59 ± 0.21 | -3.55 ± 0.4 |
| UCUCAGCAAUAUUACGCAAC | – | -4.04 ± 0.39 |

Reference: the supplement of paper PMC7877785
